Data taken from US20200317768A1 (published 2020).

T1: cynomolgus monkey FcγRIIa2 extracellular domain, His-tagged (cynomolgus monkey)
T1 construct: also called cyno FcγRIIa2; FcgRIIa2; not shown: His-tag added to the C-terminus
T1 chain: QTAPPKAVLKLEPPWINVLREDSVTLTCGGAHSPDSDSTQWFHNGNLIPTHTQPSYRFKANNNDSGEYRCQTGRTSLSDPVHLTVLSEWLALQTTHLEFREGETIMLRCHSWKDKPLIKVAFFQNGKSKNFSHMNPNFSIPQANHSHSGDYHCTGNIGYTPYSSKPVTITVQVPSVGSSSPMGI

T2: human FcγRIIb extracellular domain, His-tagged (human, UniProt P31994 43-217)
T2 construct: also called FcgRIIb (human); not shown: His-tag added to the C-terminus
T2 sequence: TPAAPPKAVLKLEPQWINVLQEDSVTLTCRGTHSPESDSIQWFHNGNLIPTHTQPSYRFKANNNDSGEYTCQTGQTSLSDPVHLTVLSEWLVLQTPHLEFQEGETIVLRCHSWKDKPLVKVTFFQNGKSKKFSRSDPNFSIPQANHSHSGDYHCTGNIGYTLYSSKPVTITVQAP

T3: cynomolgus monkey FcγRIIa3 extracellular domain, His-tagged (cynomolgus monkey)
T3 construct: also called cyno FcγRIIa3; FcgRIIa3; not shown: His-tag added to the C-terminus
T3 chain: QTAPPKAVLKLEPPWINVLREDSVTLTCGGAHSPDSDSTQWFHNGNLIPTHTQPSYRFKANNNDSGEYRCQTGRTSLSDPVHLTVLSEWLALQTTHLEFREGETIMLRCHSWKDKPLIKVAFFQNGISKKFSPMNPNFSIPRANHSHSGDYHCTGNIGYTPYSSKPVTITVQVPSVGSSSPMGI

T4: human FcγRIIaH extracellular domain, His-tagged (human, UniProt P12318 34-217)
T4 construct: also called human FcγRIIa (type H); FcgRIIaH; not shown: His-tag added to the C-terminus
T4 sequence: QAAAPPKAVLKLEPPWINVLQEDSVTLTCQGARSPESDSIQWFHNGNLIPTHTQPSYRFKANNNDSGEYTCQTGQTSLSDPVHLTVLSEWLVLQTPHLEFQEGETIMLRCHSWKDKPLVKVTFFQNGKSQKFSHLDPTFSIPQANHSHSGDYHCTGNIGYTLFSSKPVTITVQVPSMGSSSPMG

T5: cynomolgus monkey FcγRIIb extracellular domain, His-tagged (cynomolgus monkey)
T5 construct: also called cyno FcγRIIb; cynoFcγRIIb; not shown: His-tag added to the C-terminus
T5 chain: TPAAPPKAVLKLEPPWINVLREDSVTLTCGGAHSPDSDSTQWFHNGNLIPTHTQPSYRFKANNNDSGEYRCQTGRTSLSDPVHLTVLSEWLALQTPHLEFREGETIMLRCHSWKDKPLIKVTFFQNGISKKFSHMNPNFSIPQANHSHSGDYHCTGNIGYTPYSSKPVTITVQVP

T6: cynomolgus monkey FcγRIIa1 extracellular domain, His-tagged (cynomolgus monkey)
T6 construct: also called cyno FcγRIIa1; FcgRIIa1; not shown: His-tag added to the C-terminus
T6 chain: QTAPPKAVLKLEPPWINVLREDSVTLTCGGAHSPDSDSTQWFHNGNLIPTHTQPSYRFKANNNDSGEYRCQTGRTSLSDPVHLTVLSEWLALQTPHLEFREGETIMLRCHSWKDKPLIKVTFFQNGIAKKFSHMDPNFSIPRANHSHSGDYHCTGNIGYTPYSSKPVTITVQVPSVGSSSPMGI

T7: human FcγRIIaR extracellular domain, His-tagged (human, UniProt P12318 34-217)
T7 construct: also called human FcγRIIa (type R); FcgRIIaR; not shown: His-tag added to the C-terminus
T7 chain: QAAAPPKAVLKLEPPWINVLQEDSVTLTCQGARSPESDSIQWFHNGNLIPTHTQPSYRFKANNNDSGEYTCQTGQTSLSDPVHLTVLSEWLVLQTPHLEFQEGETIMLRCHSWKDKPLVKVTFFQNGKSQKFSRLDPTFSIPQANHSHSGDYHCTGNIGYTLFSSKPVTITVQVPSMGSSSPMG

B1: M103205H795-MY329 / M103202L889-SK1 (antibody, human IgG1, kappa)
heavy: QVTLKESGPVLVKPTETLTLTCTVSGIDLSHDDISWVRQAPGKGLEWVGIISYAGSTYYASWAKGRLTISKDTSKNQVVLTMTNMDPVDTATYYCARGVPAYSHGGDLWGQGTLVTVSSASTKGPSVFPLAPSSKSTSGGTAALGCLVKDYFPEPVTVSWNSGALTSGVHTFPAVLQSSGLYSLSSVVTVPSSSLGTQTYICNVNHKPSNTKVDKKVEPKSCDKTHTCPPCPAPELLDGPSVFLFPPKPKDTLMISRTPEVTCVVVDVSDEDPEVKFNWYVDGVEVHNAKTKPREELYNSTYRVVSVLTVLHQDWLNGKEYKCKVSNKALPKPIEKTISKAKGQPREPQVYTLPPSREEMTKNQVSLTCLVKGFYPSDIAVEWESNGQPENNYKTTPPVLDSDGSFFLYSKLTVDKSRWQQGNVFSCSVMHEALHNHYTQKSLSLSP
light: DIVMTQSPATLSLSPGERATLSCTSSQSVYHANWLSWFQQKPGQPPKLLIYWASTLAYGVPSRFSGSGSGTDFTLTISSLQPEDAATYYCAGGYGGGRYAFGQGTKVEIKRTVAAPSVFIFPPSDEQLKSGTASVVCLLNNFYPREAKVQWKVDNALQSGNSQESVTEQDSKDSTYSLSSTLTLSKADYEKHKVYACEVTHQGLSSPVTKSFNRGEC
notes: Fc variant made by introducing the substitutions into M103205H795-SG1; the list of substitutions runs over r151c2 and r152c2; Expressed with M103202L889-SK1 as light chain
B2: M103205H795-MY327 / M103202L889-SK1 (antibody, human IgG1, kappa)
heavy: QVTLKESGPVLVKPTETLTLTCTVSGIDLSHDDISWVRQAPGKGLEWVGIISYAGSTYYASWAKGRLTISKDTSKNQVVLTMTNMDPVDTATYYCARGVPAYSHGGDLWGQGTLVTVSSASTKGPSVFPLAPSSKSTSGGTAALGCLVKDYFPEPVTVSWNSGALTSGVHTFPAVLQSSGLYSLSSVVTVPSSSLGTQTYICNVNHKPSNTKVDKKVEPKSCDKTHTCPPCPAPELLDGPSVFLFPPKPKDTLMISRTPEVTCVVVDVSEEDPEVKFNWYVDGVEVHNAKTKPREELYNSTYRVVSVLTVLHQDWLNGKEYKCKVSNKALPKPIEKTISKAKGQPREPQVYTLPPSREEMTKNQVSLTCLVKGFYPSDIAVEWESNGQPENNYKTTPPVLDSDGSFFLYSKLTVDKSRWQQGNVFSCSVMHEALHNHYTQKSLSLSP
light: DIVMTQSPATLSLSPGERATLSCTSSQSVYHANWLSWFQQKPGQPPKLLIYWASTLAYGVPSRFSGSGSGTDFTLTISSLQPEDAATYYCAGGYGGGRYAFGQGTKVEIKRTVAAPSVFIFPPSDEQLKSGTASVVCLLNNFYPREAKVQWKVDNALQSGNSQESVTEQDSKDSTYSLSSTLTLSKADYEKHKVYACEVTHQGLSSPVTKSFNRGEC
notes: Fc variant made by introducing the substitutions into M103205H795-SG1; the list of substitutions runs over r149c2 and r150c2; Expressed with M103202L889-SK1 as light chain
B3: M103205H795-MY325 / M103202L889-SK1 (antibody, human IgG1, kappa)
heavy: QVTLKESGPVLVKPTETLTLTCTVSGIDLSHDDISWVRQAPGKGLEWVGIISYAGSTYYASWAKGRLTISKDTSKNQVVLTMTNMDPVDTATYYCARGVPAYSHGGDLWGQGTLVTVSSASTKGPSVFPLAPSSKSTSGGTAALGCLVKDYFPEPVTVSWNSGALTSGVHTFPAVLQSSGLYSLSSVVTVPSSSLGTQTYICNVNHKPSNTKVDKKVEPKSCDKTHTCPPCPAPELLDGPSVFLFPPKPKDTLMISRTPEVTCVVVDVSDEDPEVKFNWYVDGVEVHNAKTKPREEQYNSTYRVVSVLTVLHQDWLNGKEYKCKVSNKALPKPIEKTISKAKGQPREPQVYTLPPSREEMTKNQVSLTCLVKGFYPSDIAVEWESNGQPENNYKTTPPVLDSDGSFFLYSKLTVDKSRWQQGNVFSCSVMHEALHNHYTQKSLSLSP
light: DIVMTQSPATLSLSPGERATLSCTSSQSVYHANWLSWFQQKPGQPPKLLIYWASTLAYGVPSRFSGSGSGTDFTLTISSLQPEDAATYYCAGGYGGGRYAFGQGTKVEIKRTVAAPSVFIFPPSDEQLKSGTASVVCLLNNFYPREAKVQWKVDNALQSGNSQESVTEQDSKDSTYSLSSTLTLSKADYEKHKVYACEVTHQGLSSPVTKSFNRGEC
notes: expressed with M103202L889-SK1 as light chain

Key:
Assay in all cases: SPR (BIACORE), antibody captured on chip, FcγR as analyte, 25 C; KD of SG1 divided by KD of the variant
[1] = biological target: T8, human FcγRIIIaV extracellular domain, His-tagged (human, UniProt P08637 17-208)
T8 construct: also called human FcγRIIIa (allotype V158); FcgRIIIaV; not shown: His-tag added to the C-terminus
Method: (§1) After the measurement, the antibody captured on the chip was washed off by allowing reaction with 10 mM glycine-HCl, pH1.5 and 25 mM NaOH so that the chip was regenerated and used repeatedly. The sensorgrams obtained as measurement results were analyzed by the 1:1 Langmuir binding model using the BIACORE® Evaluation Software to calculate the binding rate constant ka (L/mol/s) and dissociation rate constant kd (l/s), and the dissociation constant KD (mol/L) was calculated from these values. […] Regarding such interactions, KD values were calculated using the following 1:1 binding model described in BIACORE® T100 Software Handbook BR1006-48 Edition AE.
(§2) The behavior of interacting molecules according to the 1:1 binding model on BIACORE® can be described by Equation 1: Req=C·R max/(KD+C)+RI, wherein, Req is a plot of steady-state binding levels to analyte concentration. C is concentration, RI is bulk refractive index contribution in the sample, and Rmax is analyte binding capacity of the surface. When this equation is rearranged, KD can be expressed as Equation 2: KD=C·Rmax/(Req−RI)−C. KD can be calculated by substituting the values of Rmax, RI, and C into Equation 1 or Equation 2. From the current measurement conditions, RI=0, C=2 μmol/L can be used.

[2] = biological target: T1, cynomolgus monkey FcγRIIa2 …
Method: as §1, §2

[3] = biological target: T2, human FcγRIIb extracellular domain, …
Method: as §1, §2

[4] = biological target: T9, cynomolgus monkey FcγRIIIaS extracellular domain, His-tagged (cynomolgus monkey, UniProt A3RFZ7 21-206 (rhesus entry))
T9 construct: also called cyno FcγRIIIaS; FcgRIIIaS; not shown: His-tag added to the C-terminus
Method: as §1, §2

[5] = biological target: T3, cynomolgus monkey FcγRIIa3 …
Method: as §1, §2

[6] = biological target: T4, human FcγRIIaH extracellular domain, …
Method: as §1, §2

[7] = biological target: T5, cynomolgus monkey FcγRIIb extracellular …
Method: as §1, §2

[8] = biological target: T6, cynomolgus monkey FcγRIIa1 …
Method: as §1, §2

[9] = biological target: T7, human FcγRIIaR extracellular domain, …
Method: as §1, §2

T8 sequence (P08637 17-208 F176V): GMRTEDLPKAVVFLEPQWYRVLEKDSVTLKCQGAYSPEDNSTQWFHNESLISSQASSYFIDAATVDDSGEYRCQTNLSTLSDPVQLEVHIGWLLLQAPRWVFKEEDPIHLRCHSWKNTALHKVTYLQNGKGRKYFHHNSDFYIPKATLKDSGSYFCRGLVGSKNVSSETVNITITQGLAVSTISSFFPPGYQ
T9 sequence (A3RFZ7 21-206): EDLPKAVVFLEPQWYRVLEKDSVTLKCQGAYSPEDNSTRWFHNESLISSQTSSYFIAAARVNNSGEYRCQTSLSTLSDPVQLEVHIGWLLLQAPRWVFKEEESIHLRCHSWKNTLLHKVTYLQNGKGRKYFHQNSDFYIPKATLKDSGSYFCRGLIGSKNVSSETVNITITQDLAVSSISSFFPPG

Binder | KD fold for humanFcgRs (SG1 = 1) [1] | KD fold for cynoFcgRs (SG1 = 1) [2] | KD fold for humanFcgRs (SG1 = 1) [3] | KD fold for cynoFcgRs (SG1 = 1) [4] | KD fold for cynoFcgRs (SG1 = 1) [5] | KD fold for humanFcgRs (SG1 = 1) [6] | KD fold for cynoFcgRs (SG1 = 1) [7] | KD fold for cynoFcgRs (SG1 = 1) [8] | KD fold for humanFcgRs (SG1 = 1) [9]
B1 | 0.13 fold | 1.6 fold | 28.8 fold | 0.16 fold | 4.6 fold | 2.6 fold | 3.1 fold | 1.7 fold | 5.2 fold
B2 | 0.08 fold | 1.1 fold | 27 fold | 0.08 fold | 3.2 fold | 2 fold | 1.8 fold | 0.9 fold | 3.3 fold
B3 | 0.1 fold | 1.2 fold | 17.7 fold | 0.09 fold | 2.9 fold | 1.4 fold | 1.8 fold | 0.8 fold | 3.7 fold
